Reference: the DeepSol protein solubility set

Assay: soluble on expression in E. coli; label from the status in PepcDB or PDB records

Row | Sequence | soluble on expression in E. coli
1 | GPGSMSESCSGDYYHFVTQRSQAAEITLPIPSFCKPLAASVQPFGEGKAGLLASFFDPEQHAWVVRQLPVQESWSHQPPPSLTVRVATLVDPANLYELRVSLSSVLDGVDNDDLCALQRRSQIYGLVVEEHLADKSGAALRSAGAEGRLPQLREAVTLAAPVDVMNGFVLTGGGFLSDFPVLRDGPALPRSMNTVYDDILAGEDFCGPPMPAGGARFAGTDSAAHTSGGRGSDSPVNSNEPREYTAWSVTAAANAGLACISMGLRRRSPIEWPQLQSESQHTHSASPRERTGPGTSLAISPGPLRAKPPPSVVSDTGALAVYQCTGVPVSGLRPNEHGDGGNGAHGVVSAYSSAAVSTMAARPLLETLTLRGEVDVKLSRRDGEEWGISLPPPHGSLKFSMGPNRELVAAARRYFYCE | not soluble
2 | MLYQPSLLKSRLTPAPPGFSFQPQPLLNSDMDPVRNLESLGNYTVYQDSSQCFWQHQNFTSNREHNPALRKTKICDHWRRSGSCSYGDACWYAHGEDDLRKVVRIDRSNEEENERPATAEIQKSPTKRASTNVKGLTVNIPSNTAFKEQNSSMPLSPAQERWISMSIGAVPPPTSSAAEKDAISSLSKNGVEQEQEKKHEICSRDDDIDDYGFLSPNPFPYPQQSMFSAGFPSHGHHQRSSNRATQGVPSQQFGGPVNIPGQDPNRLGSGAYHIPPQHQRSRSNVRTSREVGGPPPQFQQAIWNVAGEIYQRQKDIEIGGQRVGPNDRQPTQQKNSEMDRLLSKLKMKDLNYLRFMIERGYINERDVSRQTSSDQMSNGHHFNAPMTPPYHPRLAGNEPNTSDCHYHGTGNRLSNFMPGRHRPPHQHPIHHHHQSQHQLHQHQQYLHHAAQQYRYSHQQGPQHPFAALLSPPEISESLLPPDDSFSIWLEPKPKKQSGAMTRTRGAATINESSSAASLLTKMDALRSDKYPITDEEMMMANDFVRQGDRDDKLSSSESSSPVVMSLMELLSNENLLDQVATEKPKCSMFDFDTLKIAETLKEPLQSSECSTTTSSKMTCSPMFFFVDEKTPNYDGSGSKSLFTPSSSAGQTPSFLEPCDFFAATGSCPFGDACHQSHSI | not soluble
3 | MSLQLRLALNQIDSTVGDIAGNAEAILRWTRHSAEQGAHLVAFPEMALTGYPVEDLALRSSFVEASRTALRELAARLAEEGFGELPVLVGYLDRSESAQPKYGQPAGAPRNAAAVLHRGRVALTFAKHHLPNYGVFDEFRYFVPGDTMPIVRLHGVDIALAICEDLWQDGGRVPAARSAGAGLLLSVNASPYERDKDDTRLELVRKRAQEAGCTTAYLAMIGGQDELVFDGDSIVVDRDGEVVARAPQFSEGCVVLDLDLPAAEAEPPTGVVDDGLRIDRLVISEEPLPAYEAELAGGYADRLDADEEVYSALVVGLRAYVAKNGFRSVLIGLSGGIDSALVAAIACDALGAQNVYGVSMPSKYSSDHSKGDAAELARRTGLNFRTVSIEPMFDAYMASLGLTGLAEENLQSRLRGTTLMAISNQEGHIVLAPGNKSELAVGYSTLYGDSVGAYGPIKDVYKTSIFRLAEWRNRAAAERGQTPPIPEASITKPPSAELRPGQVDTDSLPDYPVLDAILELYVDRDTGADAIVAAGYDRELVVKTLRMVDTAEYKRRQYPPGTKISAKGFGKDRRLPITNRWREGHHHHHH | soluble
4 | MSLTSPKRNIVGFTIVNDKHEFAQRLINAFKAEAKANKYEALVATSQNSRISEREQILEFVHLKVDAIFITTLDDVYIGSAIEEAKKAGIPVFAIDRMIRSDAVVSSITSNNQMIGEQLASYIKNELIKQTGRSTGRIVEITGTANVYTTNERHRGFLKGIENEPTLSIVDSVSGNYDPVTSERVMRQVIDSGIPFDAVYCHNDDIAMGVLEALKKAKISGKIVVGIDGNRAILEAVDMKSMDATVVQSAEEMMKVAFSALKLHTKNKKIPDRFYTYSYLYDGSREGHHHHHH | soluble
5 | MQEKPQEPKVVGVEILEKSGLDIKKLVDKLVKATAAEFTTYYYYTILRMHLTGMEGEGLKEIAEDARLEDRLHFELMTQRIYELGGGLPRDIRQLADISACSDAYLPENWKDPKEILKVLLEAEQCAIRTWKEVCDMTYGKDPRTYDLAQRILQEEIEHEAWFLELLYGRPSGHFRRSSPGNAPYSKK | soluble
6 | MAQISGNQTGIGSIHPLLHQNTSDFSEQKFSSVFTGDEFFLRDHVVRGKPVLPGVAYLEMAYAAINQAAGSEIGQDVRIRLNHTVWVQPVVVDRHSAQVDISLFPEEDGKITFDIYSTQEDGDDPVIHSQGSAELASAAETPVADLTEMSRRCGKGKMSPDQFYEEGRSRGMFHGPAFQGIKNVNIGNREVLAQLQLPEIVSGTNEQFVLHPSIMDSALQTATICIMQELTDQKLILPFALEELEVIKGCSSSMWAYARLSDSDHSGGVVQKADIDVIDESGTVCVRIKGFSTRVLEHHHHHH | soluble
7 | MGSDKIHHHHHHMLYTENLQSLIDSGKGYNVEFKVRVPSKVRELTEEICAFANADGGYLLIGVDDNGQVVDTNLENDKRSAIQGSISEISPALHCELYSVNVGNKTVWVIDVPSGKDKPYIFSGSIYVREGANSQKLRTAEEMRSFFQECNKIFFDHIPCHWFNIYTDADEQMIKGFRTEAKLSPSTPDKQIFENLELFIENGTAKNGAAMFFGKQPERKFPHAVTRCVLFKGTNKVYIIDDKTFGGSLYQQYLQAMSWLESKLQVAYKIEGAGPREEIWEIPLTVFKEAIINALSHRDYYEQGASIMIEMFDDRVEISNPGGLLPVVAKDFGHKSMTRNPLIFGLFTRMHLVERVASGIPRMQEAMREANLPEPEFHTEGMFTVVFKRKNTNSANRDIVNGIINGIVNENEQTILNLLKAKPGLNASEVAESLSKSWRTTMRYLKSLNDKGLVEFRGAPKTGGYYLTRNI | not soluble
8 | MSLRDESRLDKYVIKEILRINRHLPRRRKTLEELLREERPHVVNRDGTKHYFDRDELERLADILPRYLHGRLKLPILIELGYSGAAVIRGKAEVRVVCEVLGEEWRFSQDRVELNMLDVRKLRREFPTATQYMFSTEYIMGRPKVERREGHHHHHH | soluble
9 | MDAPLAEQDLKALFLRHARQLQSYLLRKTRDPHLAADLAQESFLRLAEQRHKEPIEHVDAYLYRTAHNLTIDHYRQERRRRTETQPNDDLAGFVADQPGPEESAVDADALARLREIVAELPPRTREIFRLNRLEGLTHAEVARRLEISDSSVQKHLARTLAHVMQALEDSR | not soluble
10 | MLKIATFNVNSIRSRLHIVIPWLKENKPDILCMQETKVENRKFPEADFHRIGYHVVFSGSKGRNGVAIASLEEPEDVSFGLDSEPKDEDRLIRAKIAGIDVINTYVPQGFKIDSEKYQYKLQWLERLYHYLQKTVDFRSFAVWCGDMNVAPEPIDVHSPDKLKNHVCFHEDARRAYKKILELGFVDVLRKIHPNERIYTFYDYRVKGAIERGLGWRGDAILATPPLAERCVDCYADIKPRLAEKPSDHLPLVAVFDV | soluble
11 | MIEIKVPELAESITEGTISQWLLNVGDKVEKGGSVVELETDKVNVEIIAEDSGIVSKLLGEPGDTVEVGATIAILDANGAPVAVSTPAPAEQSKQETAEAPKAAAPSAEQTATLQGLPNTNRPIASPAARKMARELGIDLNDVRSTDPLGRVRPHDVQAHAAAPKEAPAAPKSPAPAPVAKTEFEKPVERVKMSRRRQTIAKRLVEVQQTSAMLTTFNEVDMTAIMELRKERKDAFEKKHDVRLGFMSFFTKAVVAALKQFPLLNAEIQGDELIIKKFYDIGIAVAAPDGLVVPVVRDANQLNFAEIESEIRELGKKARDNKLSLKELQGGTFTITNGGVFGSLMSTPILNSPQVGILGMHKIQVRPVAIDNERMENRPMMYIALSYDHRIVDGKEAVSFLVAVKDMLEDPKSLLLEG | not soluble
12 | MGSDKIHHHHHHMDKLRAIQLFVRLADLGSFTRVAEQVNSSKSMISKEISRLEADLGTRLLHRSTRSVQLTHVGEGYLQRAREILSKLDDADNFVQDLQQNLRGKLKINAPMALGITDLSHLFADFMKANPEIELDIHLGDESVDLVEQGFDLGFRASSQPIDSNYVGRPLTRFTYKVCVSPDYLKMHSTITHPRDLKEHNCFIYSYFQGKNVWPIEGGIEVKGSLRVNNTMFMMESIKQGLGIGFIPDFVCQQAINSGQVVEVLADSKKSMLTLYALYPVRNFVPPKLVQCIEYLEQWFADKDKP | not soluble
13 | MSLEAFIRSDQYNFIKSQAYILANGHATANDRGVIQALKSLAIEKIIHVFENLTDEQKELIDTVLTVQNREDAESFLMKIKPYVIPFQEVTAQTLKKLFPKAKKLKLPDMEEMDMKEISYLSWIDKGSSRKFIIAKNDKNKFVGLQGTFQSLNKKSICSLCHGHEEVGMFLVEIKGDIPGTFVKKGNYICKDGVACNQNMKSLDKLQDFIERLKKEGHHHHHH | soluble
14 | MKDSSRAELMRKVQETSFACVDMNLYLDNHPDDKNAINTYNSLCNQFAQARYAYENKYGPLTNFGYAPSRCPWQWADQPWPWDREFNYLEHHHHHH | soluble
15 | MGSDKIHHHHHHMPSPLLRRENKIKILRYILKNGKTTRNQLASNLNLAHSTLSYIIDELLDEGFLVFEEIKKKRGRPYQILSVNPEKFTAIGVKVGREEVRGVLFDARMNPLKEHRVQILSGMRNNDGYTRALRETIEQLRSENLLGVGICSSGIVKEGRVVVSHVMNVKDWDPRKVLKDLERILVMNDSDALCREISQRVNTDFLLVSYGVGIGASLWKDKKIHHIEMGHMLAASEGKCYCGQTGCLEYHSSEYAVLKSYLGKEIDFEDFITSEEEKYRQTIEELREKAREDFDSVKVHYEKAFKTFSVVLGNVIMGSGVSRVFFAGEGVVSEEMVKILEELVKVRFNRDFVGEVQFQVADANWMLGAARAVVDKYLPYIVK | not soluble
16 | MSLAQIDSLFVTRLYRAALSEHGPKIDPQEMEASCIAIAEDDEAGQDWCEENGYPGYTSYASLTDLPWRFPIFADLVKSLDAHVAAFAQDLELNLDGRDLKLEDLWINILPEGGTHASHIHPHSVISGTTYVSMPDGASALKLEDPRHAMMMAHPPRTKDCRRELRSFVYEAPNVGDVLLWESFIRHEVPMNMAEDERISVSFNYAWAEGHHHHHH | soluble
17 | SLSPAMSFLKSFPPPGSADGLRLQQPDTEAVLNGKGLGTGTLYIAESRLSWLDGSGLGFSLEYPTISLHAVSRDPNAYPQEHLYVMVNAKLGEESKEPLSDEDEEDNDDVEPISEFRFVPSDKSALEAMFTAMCECQALHPDPEDEDSDDYDGEEYDVEAHEQGQGDIPTFYTYEEGLSHLTAEGQATLERLEGMLSQSVSSQYNMAGVRTEDSVRNYEDGMEVETTPTVAGQFEDADVDH | soluble
18 | MFQNSPMMYDWWNDTTKPKHQQPTLNVLSPWGAYFNHIGNELLHLKIASSTVSSGCSSPQQYSSARSVGNSLSNGSVVSTTSSDGDVQLSNKENSNDKSVGDKNGNTTTNKTTVEPPPPEEPPVRVRASHREKLSDSEVLNQLREIVNPSNPLGKYEMKKQIGVGASGTVFVANVAGSTDVVAVKRMAFKTQPKKEMLLTEIKVMKQYRHPNLVNYIESYLVDADDLWVVMDYLEGGNLTDVVVKTELDEGQIAAVLQECLKALHFLHRHSIVHRDIKSDNVLLGMNGEVKLTDMGFCAQIQPGSKRDTVVGTPYWMSPEILNKKQYNYKVDIWSLGIMALEMIDGEPPYLRETPLKAIYLIAQNGKPEIKQRDRLSSEFNNFLDKCLVVDPDQRADTTELLAHPFLKKAKPLSSLIPYIRAVREK | not soluble
19 | MGSDKIHHHHHHMIRDARVLRAGFVPREVEHRDAEVNHLSSVLEPITNGEPADTAIVTGPSGAGKTCISQFVTERLREEVLDVETTYVNCWRNYTRFRTLYQILDDLGATIDIHRQSTPHDELVDRLQQHDGPRTVVILDEVDQLEDPSVIYDLHSLPQFAIICIANKEEELFSRVDDRLVSRLRSSEHVRMDKYHDEQLYDILSARAKWGLDEDVITDDQLYRIADAAAGDARLAIGILRTAAGKADRENHERITDDILLNAAEDARAQIKQKSLDSLTPHQRVVYDIVREHGPIGPSEIHERYSEDVDDPRTKRTIRTYLSKMEQYNLLEAEGTSRDREYSLVDSAAASPMQ | not soluble
